Experimental data from patent EP4163303A1, “SYNTHETIC MULTI-EPITOPE CHIMERA AS A VACCINE AND TREATMENT FOR LEI[…] MAMMALS” (Universidad Complutense De Madrid, priority 2020, dated 2021).

How the values were obtained:
L. infantum = assay: Protection against L. infantum in the murine model of visceral leishmaniasis; format: in vivo, mice; settings: 6 weeks after i.v. infection with 5×10^5 L. infantum promastigotes; versus Saponin and PBS groups
Experimental: (§1) To assess the immunogenicity of the synthetic multi-epitope chimera characterised by SEQ ID NO: 5, inoculations were performed subcutaneously in three groups of mice (n=8/group). The animals of one group, referred to as Seq5, were inoculated with 50 µg of the synthetic chimera characterised by SEQ ID NO: 5 and 25 µg of saponin, as an adjuvant; the animals of another group, saponin control group, were inoculated with 25 µg of saponin; and the PBS control group was inoculated with PBS (buffer in which both the synthetic multi-epitope chimera characterised by SEQ ID NO: 5 and the adjuvant were transported). The inoculation was carried out on the left rear plantar pad on days 60, 45 and 30, with respect to day zero of infection, with a total volume of 50 µl.
30 days after the last immunisation carried out as described in example 3, an infection was intravenously performed with 5×10^5 infective L. infantum promastigotes in the 3 groups of animals (which we have named Seq5, Saponin and PBS). 6 weeks after infection, the animals were euthanised and the parasite load in the VL target organs was assessed. The parasite count was carried out by decimal dilutions of spleen and liver macerates, separately, and their subsequent observation under a microscope. […]

[1] = Immunogenicity in immunised mice: cytokine ELISA in BMDC/splenocyte co-cultures and humoral response; format: in vivo
Experimental: as §1
The displacement of the immune response in the group immunised with the chimera characterised by SEQ ID NO: 5 correlates with increased leishmanicidal activity in target cells infected with Leishmania.
Use was made of virgin bone marrow-derived dendritic cells (BMDC) stimulated with soluble Leishmania antigen (SLA; produced with the supernatants obtained after having lysed cultures of Leishmania promastigotes obtained after sonication and subsequent centrifugation), grey bars; or stimulated with the chimera characterised by SEQ ID NO: 5, white bars; unstimulated BMDC was used as negative control, indicated as N-E with black bars. The BMDCs were co-cultured with spleen cells, splenocytes, of the animals previously immunised as indicated in example 3. Cytokine production (pg/ml) was quantified using the ELISA technique. The data are presented as the mean ± standard deviation (SD). The hash marks indicate statistically significant differences (#, P < 0.05; ##, P <0.001) between the immunised groups and the two control groups (Saponin and PBS). The asterisk indicates statistically significant differences (*, P < 0.05; **, P < 0.001).

[2] = test system: BMDCs infected with L. infantum; assay: Leishmanicidal activity in L. infantum infected BMDCs co-cultured with splenocytes of immunised animals; format: cell-based, mice; settings: 24 and 72 hours of postinfection incubation; versus Saponin and PBS control groups
Experimental: as §1
The leishmanicidal activity of the chimera characterised by SEQ ID NO: 5 (indicated in the figure as Seq5) was assessed in BMDC. Virgin BMDCs infected with L. infantum were co-cultured with splenocytes from animals previously immunised with the chimera characterised by SEQ ID NO: 5 as indicated in example 3, and with splenocytes from animals previously inoculated with the two controls used according to example 5. The parameters of infected cells and number of intracellular amastigotes were determined by optical microscopy. The data are presented as the mean ± SD. […]

[3] = splenocytes of immunised mice co-cultured with BMDC stimulated with the chimera or SLA, ELISA, versus Saponin and PBS controls

B1: … RFQSSAIMALQEITRGCVRRMARRGGVK (peptide)
chain: TAVLEYLTAELLELSRSLKAINAQMSMSHRTMKIVNSYVEGLRFQSSAIMALQEITRGCVRRMARRGGVK
modifications: Multi-epitopic chimera consisting of SEQ ID NO: 1, 2, 3 and 4 from Leishmania infantum
parasite load in the liver (H) (L. infantum): lower parasite load | parasite load in the spleen (B) (L. infantum): lower parasite load | specific humoral response against the synthetic multi-epitope chimera (isotype) ([1]; mice immunised s.c. with 50 µg chimera and 25 µg saponin): redirection of the specific humoral response against the synthetic multi-epitope chimera to the IgG2a isotype | immune response profile ([1]; mice immunised s.c. with 50 µg chimera and 25 µg saponin, versus Saponin and PBS controls): protective Th1 cell response profile | production of IFN-γ [1, 3]: greater amount | production of IL-12 [1, 3]: greater amount | number of intracellular amastigotes detected per cell (No./BMDC) [2]: lower number | percentage of infected target cells (% BMDC) [2]: notable reduction
